According to patent publication US20250019438A1 (AstraZeneca / MedImmune, published 2025):

B1: EGFR-CD3 DuetMab with anti-CD3 variant AZ Vκ 29 + AZ VH E79 (bispecific antibody, part only; not given: anti-EGFR arm, constant regions, V domains shown, not shown: another chain or arm of the molecule; a dimerising Fc or GST; small tags and cut ends)
VH: EVQLVESGGALVKPGGSLRLSCAASGFTFTEAWMHWVRQAPGKQLEWVAQIKDRSQTYATYYAESVKGRFTISRDDSKNTLYLQMNSLKTEDTAVYYCRGVYYAVTPFDYWGQGTLVTVSS
VL: DIVMTQSPLSLPVTPGEPASISCRSSQSLVHNTGNTYLSWYLQKPGQSPQSLIYKVSNRASGVPDRFSGSGSGTDFTLKISRVEAEDVGVYYCGQGTQFPFTFGSGTKVEIK
B2: EGFR-CD3 DuetMab with anti-CD3 variant AZ Vκ 29 + AZ VH E75 (bispecific antibody, part only; not given: anti-EGFR arm, constant regions, V domains shown, not shown: another chain or arm of the molecule; a dimerising Fc or GST; small tags and cut ends)
VH: EVQLVESGGALVKPGGSLRLSCAASGFTFTEAWMHWVRQAPGKQLEWVAQIKDRSQTYATYYAESVKGRFTISRDDSKNTLYLQMNSLKTEDTAVYYCRGVYYANAPFDYWGQGTLVTVSS
VL: DIVMTQSPLSLPVTPGEPASISCRSSQSLVHNTGNTYLSWYLQKPGQSPQSLIYKVSNRASGVPDRFSGSGSGTDFTLKISRVEAEDVGVYYCGQGTQFPFTFGSGTKVEIK
B3: EGFR-CD3 DuetMab with anti-CD3 variant AZ Vκ 26 + AZ VH SN75 (bispecific antibody, part only; not given: anti-EGFR arm, constant regions, V domains shown, not shown: another chain or arm of the molecule; a dimerising Fc or GST; small tags and cut ends)
VH: EVQLVESGGALVKPGGSLRLSCAASGFTFSNAWMHWVRQAPGKQLEWVAQIKDRSQTYATYYAESVKGRFTISRDDSKNTLYLQMNSLKTEDTAVYYCRGVYYANAPFDYWGQGTLVTVSS
VL: DIVMTQSPLSLPVTPGEPASISCRSSQSLVHNTGNTYLSWYLQKPGQSPQSLIYKVSNRASGVPDRFSGSGSGTDFTLKISRVEAEDVGVYYCGQGTQAPFSFGSGTKVEIK
B4: EGFR-CD3 DuetMab with anti-CD3 variant AZ Vκ 26 + AZ VH SN79 (bispecific antibody, part only; not given: anti-EGFR arm, constant regions, V domains shown, not shown: another chain or arm of the molecule; a dimerising Fc or GST; small tags and cut ends)
VH: EVQLVESGGALVKPGGSLRLSCAASGFTFSNAWMHWVRQAPGKQLEWVAQIKDRSQTYATYYAESVKGRFTISRDDSKNTLYLQMNSLKTEDTAVYYCRGVYYAVTPFDYWGQGTLVTVSS
VL: DIVMTQSPLSLPVTPGEPASISCRSSQSLVHNTGNTYLSWYLQKPGQSPQSLIYKVSNRASGVPDRFSGSGSGTDFTLKISRVEAEDVGVYYCGQGTQAPFSFGSGTKVEIK
B5: EGFR-CD3 DuetMab with anti-CD3 variant AZ Vκ 17 + AZ VH R79 (bispecific antibody, part only; not given: anti-EGFR arm, constant regions, V domains shown, not shown: another chain or arm of the molecule; a dimerising Fc or GST; small tags and cut ends)
VH: EVQLVESGGALVKPGGSLRLSCAASGFTFTRAWMHWVRQAPGKQLEWVAQIKDRSQTYATYYAESVKGRFTISRDDSKNTLYLQMNSLKTEDTAVYYCRGVYYAVTPFDYWGQGTLVTVSS
VL: DIVMTQSPLSLPVTPGEPASISCRSSQSLVHNTGNTYLSWYLQKPGQSPQSLIYKVSNRASGVPDRFSGSGSGTDFTLKISRVEAEDVGVYYCGQGTQAPFTFGSGTKVEIK
B6: EGFR-CD3 DuetMab with anti-CD3 variant AZ Vκ 17 + AZ VH R82 (bispecific antibody, part only; not given: anti-EGFR arm, constant regions, V domains shown, not shown: another chain or arm of the molecule; a dimerising Fc or GST; small tags and cut ends)
VH: EVQLVESGGALVKPGGSLRLSCAASGFTFTRAWMHWVRQAPGKQLEWVAQIKDRSQTYATYYAESVKGRFTISRDDSKNTLYLQMNSLKTEDTAVYYCRGVYYANTPFDYWGQGTLVTVSS
VL: DIVMTQSPLSLPVTPGEPASISCRSSQSLVHNTGNTYLSWYLQKPGQSPQSLIYKVSNRASGVPDRFSGSGSGTDFTLKISRVEAEDVGVYYCGQGTQAPFTFGSGTKVEIK
B7: EGFR-CD3 DuetMab with anti-CD3 variant AZ Vκ 26 + AZ VH R82 (bispecific antibody, part only; not given: anti-EGFR arm, constant regions, V domains shown, not shown: another chain or arm of the molecule; a dimerising Fc or GST; small tags and cut ends)
VH: EVQLVESGGALVKPGGSLRLSCAASGFTFTRAWMHWVRQAPGKQLEWVAQIKDRSQTYATYYAESVKGRFTISRDDSKNTLYLQMNSLKTEDTAVYYCRGVYYANTPFDYWGQGTLVTVSS
VL: DIVMTQSPLSLPVTPGEPASISCRSSQSLVHNTGNTYLSWYLQKPGQSPQSLIYKVSNRASGVPDRFSGSGSGTDFTLKISRVEAEDVGVYYCGQGTQAPFSFGSGTKVEIK
B8: EGFR-CD3 DuetMab with anti-CD3 variant AZ Vκ 17 + AZ VH SN75 (bispecific antibody, part only; not given: anti-EGFR arm, constant regions, V domains shown, not shown: another chain or arm of the molecule; a dimerising Fc or GST; small tags and cut ends)
VH: EVQLVESGGALVKPGGSLRLSCAASGFTFSNAWMHWVRQAPGKQLEWVAQIKDRSQTYATYYAESVKGRFTISRDDSKNTLYLQMNSLKTEDTAVYYCRGVYYANAPFDYWGQGTLVTVSS
VL: DIVMTQSPLSLPVTPGEPASISCRSSQSLVHNTGNTYLSWYLQKPGQSPQSLIYKVSNRASGVPDRFSGSGSGTDFTLKISRVEAEDVGVYYCGQGTQAPFTFGSGTKVEIK
B9: EGFR-CD3 DuetMab with anti-CD3 variant AZ Vκ 17 + AZ VH R75 (bispecific antibody, part only; not given: anti-EGFR arm, constant regions, V domains shown, not shown: another chain or arm of the molecule; a dimerising Fc or GST; small tags and cut ends)
VH: EVQLVESGGALVKPGGSLRLSCAASGFTFTRAWMHWVRQAPGKQLEWVAQIKDRSQTYATYYAESVKGRFTISRDDSKNTLYLQMNSLKTEDTAVYYCRGVYYANAPFDYWGQGTLVTVSS
VL: DIVMTQSPLSLPVTPGEPASISCRSSQSLVHNTGNTYLSWYLQKPGQSPQSLIYKVSNRASGVPDRFSGSGSGTDFTLKISRVEAEDVGVYYCGQGTQAPFTFGSGTKVEIK
B10: EGFR-CD3 DuetMab with anti-CD3 variant AZ Vκ 17 + AZ VH SN82 (bispecific antibody, part only; not given: anti-EGFR arm, constant regions, V domains shown, not shown: another chain or arm of the molecule; a dimerising Fc or GST; small tags and cut ends)
VH: EVQLVESGGALVKPGGSLRLSCAASGFTFSNAWMHWVRQAPGKQLEWVAQIKDRSQTYATYYAESVKGRFTISRDDSKNTLYLQMNSLKTEDTAVYYCRGVYYANTPFDYWGQGTLVTVSS
VL: DIVMTQSPLSLPVTPGEPASISCRSSQSLVHNTGNTYLSWYLQKPGQSPQSLIYKVSNRASGVPDRFSGSGSGTDFTLKISRVEAEDVGVYYCGQGTQAPFTFGSGTKVEIK

target: Biotinylated recombinant human CD3εδ (Acro Biosystems, CDD-H82W6) (human) (UniProt P07766); assay: Octet BLI, biotinylated CD3εδ on streptavidin sensors, 1:1 model
Sequence (P07766 23-126, stated change not applied, chain 1 of 2): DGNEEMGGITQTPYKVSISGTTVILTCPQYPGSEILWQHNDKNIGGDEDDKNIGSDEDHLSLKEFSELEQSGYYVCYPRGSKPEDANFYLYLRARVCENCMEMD
Sequence (P04234 22-105, stated change not applied, chain 2 of 2, further chain): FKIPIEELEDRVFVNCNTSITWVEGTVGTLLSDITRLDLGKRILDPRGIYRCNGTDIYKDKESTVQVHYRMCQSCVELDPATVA

Question: B1 was tested. Which Kd did it give?
Answer: Its Kd is 4580 nM.

Question: What about the koff of the same binder?
Answer: The koff was 0.118 s⁻¹.

Question: And the kon?
Answer: The kon was 25800 M⁻¹ s⁻¹.

Question: Which Kd does the source give for B2 here?
Answer: The Kd was 2220 nM.

Question: And the koff?
Answer: The koff was 0.0404 s⁻¹.

Question: What about the kon of the same binder?
Answer: The kon was 18200 M⁻¹ s⁻¹.

Question: What does the source list for B3?
Answer: Kd: 949 nM; koff: 0.0155 s⁻¹; kon: 16300 M⁻¹ s⁻¹

Question: Which results are given for B4?
Answer: Kd: 1930 nM; koff: 0.0361 s⁻¹; kon: 18700 M⁻¹ s⁻¹

Question: What does the source list for B5?
Answer: Kd: 734 nM; koff: 0.018 s⁻¹; kon: 24600 M⁻¹ s⁻¹

Question: B6 was tested. Which Kd did it give?
Answer: Its Kd is 550 nM.

Question: What about the koff of the same binder?
Answer: Its koff is 0.00928 s⁻¹.

Question: What about the kon of the same binder?
Answer: The kon was 16900 M⁻¹ s⁻¹.

Question: Which Kd does the source give for B7 here?
Answer: Its Kd is 411 nM.

Question: And the koff?
Answer: The koff was 0.00711 s⁻¹.

Question: What about the kon of the same binder?
Answer: The kon was 17300 M⁻¹ s⁻¹.

Question: Which Kd does the source give for B8 here?
Answer: The Kd was 853 nM.

Question: What about the koff of the same binder?
Answer: The koff was 0.00923 s⁻¹.

Question: And the kon?
Answer: Its kon is 10800 M⁻¹ s⁻¹.

Question: Which results are given for B9?
Answer: Kd: 266 nM; koff: 0.00644 s⁻¹; kon: 24200 M⁻¹ s⁻¹

Question: With B10 as the binder, how does the Kd read?
Answer: The Kd was 1640 nM.

Question: And the koff?
Answer: The koff was 0.0149 s⁻¹.

Question: What about the kon of the same binder?
Answer: The kon was 9100 M⁻¹ s⁻¹.
